Target: C-terminal SPA-tagged RpoB fusion protein (B. subtilis) (UniProt P37870)
Assay: affinity purification with mass spectrometry

Sequence of UniProt P37870 (P37870 whole entry, the tested form may be a part): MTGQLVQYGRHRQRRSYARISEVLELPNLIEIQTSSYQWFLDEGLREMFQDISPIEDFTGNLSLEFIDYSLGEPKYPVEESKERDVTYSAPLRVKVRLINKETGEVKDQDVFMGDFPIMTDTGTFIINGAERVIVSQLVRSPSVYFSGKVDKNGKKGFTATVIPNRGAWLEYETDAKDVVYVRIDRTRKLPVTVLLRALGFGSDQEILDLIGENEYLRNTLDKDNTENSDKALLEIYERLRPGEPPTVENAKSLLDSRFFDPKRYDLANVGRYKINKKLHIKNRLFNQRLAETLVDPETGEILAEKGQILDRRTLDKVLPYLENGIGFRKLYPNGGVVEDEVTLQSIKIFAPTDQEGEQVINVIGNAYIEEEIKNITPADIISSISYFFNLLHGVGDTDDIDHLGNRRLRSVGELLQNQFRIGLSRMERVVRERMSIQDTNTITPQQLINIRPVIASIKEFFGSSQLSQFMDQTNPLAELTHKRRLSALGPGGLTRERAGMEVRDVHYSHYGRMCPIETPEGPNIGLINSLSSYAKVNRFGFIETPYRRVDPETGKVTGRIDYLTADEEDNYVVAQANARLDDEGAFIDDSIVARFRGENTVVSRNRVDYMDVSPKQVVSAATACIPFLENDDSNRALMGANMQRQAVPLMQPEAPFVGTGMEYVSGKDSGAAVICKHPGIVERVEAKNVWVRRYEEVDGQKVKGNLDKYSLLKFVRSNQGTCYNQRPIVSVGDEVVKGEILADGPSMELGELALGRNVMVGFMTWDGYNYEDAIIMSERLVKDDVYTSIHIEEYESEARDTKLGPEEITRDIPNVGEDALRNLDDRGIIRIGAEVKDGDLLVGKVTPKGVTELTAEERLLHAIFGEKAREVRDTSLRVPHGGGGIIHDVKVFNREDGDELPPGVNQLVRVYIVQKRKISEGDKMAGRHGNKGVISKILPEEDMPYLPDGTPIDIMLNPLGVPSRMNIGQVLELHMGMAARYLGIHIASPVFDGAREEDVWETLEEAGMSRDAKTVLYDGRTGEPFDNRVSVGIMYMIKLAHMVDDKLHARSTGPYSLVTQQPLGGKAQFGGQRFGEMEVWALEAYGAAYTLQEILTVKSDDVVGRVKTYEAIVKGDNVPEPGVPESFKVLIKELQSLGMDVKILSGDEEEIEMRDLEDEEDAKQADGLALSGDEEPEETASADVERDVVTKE

Row | relative fraction of RNAP bound to SigA, diamide stress | relative fraction of RNAP bound to SigA, no stress | relative fraction of RNAP bound to Spx, diamide stress | relative fraction of RNAP bound to Spx, no stress | Molecule
1 | 58.1% | 61.5% | – | – | SigA (43 kDa) (from UniProt P06224 1-371) (natural protein)
2 | – | – | 21.6% | 11% | Spx (15 kDa) (natural protein) MVTLYTSPSCTSCRKARAWLEEHEIPFVERNIFSEPLSIDEIKQILRMTEDGTDEIISTRSKVFQKLNVNVESMPLQDLYRLINEHPGLLRRPIIIDEKRLQVGYNEDEIRRFLPRKVRSFQLREAQRLAN

— PMC3479203
